Data as given in patent US20240084044A1, “Heteromultivalent Nucleic Acid Scaffolds and Uses Thereof” (George Mason University, priority 2022, published 2024).
Bridges are numbered along the chain shown (N, C = ends). Roman numbers before positions name the chains, in order.

How the values were obtained:
[1] = biological target: T1, IL-1RAcP/ST2/IL-33 ternary complex (Homo sapiens, UniProt O95760+Q01638); experiment: Crosslinking assay of ternary complex (trimer) formation with recombinant IL-33, ST2 and IL-1RAcP; assay type: biochemical
T1 construct: included the extracellular domains, K19-F328 and S21-E359, respectively; the cleaved mature proteins, S112-T270, A117-S269, and R2-S310, respectively; purchased Sino Biologicals ST2 10105-HCCH; IL1RAcP 10121-H08H; IL-33 10368-HNAE; host or cells: ST2 and IL1RAcP: HEK293; IL-33: E. coli
T1 sequence (Q01638 19-328 isoform Q01638-2): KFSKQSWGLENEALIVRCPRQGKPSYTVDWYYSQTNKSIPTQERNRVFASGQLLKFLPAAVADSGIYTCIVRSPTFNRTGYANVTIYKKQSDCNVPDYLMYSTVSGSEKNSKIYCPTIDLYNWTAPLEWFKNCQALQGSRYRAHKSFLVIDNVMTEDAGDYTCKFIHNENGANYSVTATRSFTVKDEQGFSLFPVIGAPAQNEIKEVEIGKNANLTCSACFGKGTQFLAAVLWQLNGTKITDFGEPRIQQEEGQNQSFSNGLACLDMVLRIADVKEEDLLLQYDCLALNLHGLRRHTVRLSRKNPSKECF
T1 sequence (O95760 112-270): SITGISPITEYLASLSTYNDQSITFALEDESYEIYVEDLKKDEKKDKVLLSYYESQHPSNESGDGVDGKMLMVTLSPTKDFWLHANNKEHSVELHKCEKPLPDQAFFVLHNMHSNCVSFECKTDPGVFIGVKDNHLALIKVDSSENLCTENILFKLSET
Protocol: MSTOP dose curves were performed with a crosslinking assay. Recombinant IL-33, ST2, and IL-1RAcP were combined as described above and incubated at RT for 30 m in PBS or treated with 10 μM of 3WJ scaffold, WT peptides, or MSTOP in a dose range of 10 μM to 1 nM (1:10 serial dilution). Following incubation, 1 μL of 2.5 mM Disuccinimidyl suberate (DSS, 83 μM) homobifunctional crosslinker was added and reactions were incubated for […] at RT., then quenched with 1 μL of 1 M Tris-HCl. Samples were then prepared for electrophoresis.
The native receptor has a KD value of 10 μM illustrative of the fact that the interaction is weak and transient (FIG. 3A). […] The prototype MSTOP was finally assessed for bioactivity via prevention of IL-33/ST2 signaling activation. The MSTOP was first tested in vitro with recombinant ST2, IL-33, and IL-1RAcP incubated together in its endogenous 1:1:1 stoichiometry for 30 minutes. Reactions were then treated with DSS homobifunctional NETS-based crosslinker (final concentration ˜85 μM) to tether formed trimers. Trimer resolved at the predicted 120 kDa in semi-native conditions, while unbound IL-1RAcP resolved at 50 kDa. Quantification of IL-1RAcP at 120 kDa was normalized against total lane IL-1RAcP input, with the untreated trimer control representing 100% trimerization. […]

[2] = system: IL-1β signaling (HEK-Blue IL-1β cells); experiment: SEAP reporter assay in HEK-Blue IL-1β reporter cells; assay type: cell-based, human; settings: 10 μM; 250 pg/mL IL-1β
Protocol: HEK-Blue® IL-33 (Invivogen, Cat. #hkb-hil33) and IL-1β cells (Invivogen, Cat #hkb-il1bv2) were cultured in T25 and T75 flasks (NUNC, Cat. #156367 and #156499) in DMEM media supplemented with L-glutamine (Gibco, Cat. #11995-065), 10% Fetal Bovine Serum (Gibco, Cat. #10437-028), 1% Penicillin/Streptomycin (Gibco, Cat. #15140-148), and 0.5% Normacin® (Invivogen, Cat. #ant-hr-1). IL-33 cell growth media also included 1 mL of 250× Selectin Cocktail® (Invivogen, Cat. #hb-sel) and IL-1β cell growth media included 100 μg/mL of Zeocin® (Cat #ant-zn-05). Cells were maintained at 37° C. with humidity and 5% CO2 and were passaged upon reaching 80-85% confluency. To ensure assay consistency, passage number was kept low (<20) to maintain stable ST2 and IL-1RI expression.
IL-33 and IL-1β signaling activation was assessed based on the expression of a SEAP reporter gene. Flasks were washed 2× with prewarmed, sterile PBS (Gibco), scraped in fresh media, and spun down for 5 m at 250×g. Pellet was resuspended in 5 mL test medium (DMEM, 10% heat inactivated FBS, and 1% P/S), cells counted, and concentration adjusted to 2.8×10^5 cell/mL. […] After incubation, SEAP reporter gene phosphatase activity was measured by adding 20 μL of supernatant from each well to 180 μL of QuantiBLUE substrate (Invivogen, Cat #rep-qbs) and incubated an additional 30 min at 37° C. Colorimetric absorbance was measured at 620 nm. […]

HEK-Blue cells = experiment: CellTiterGlo cell viability / cellular cytotoxicity assay; assay type: cell-based, human

**Q.** Which results are given for “MSTOP: 3WJ DNA scaffold whose three DBCO staple strands carry cyclized azidolysine IL-1RAcP hotspot peptides; decoy for IL-33/ST2 (peptide 1 Ac-CKEYGIQRITC-NH2; peptide 2 Ac-AKVGSPKNAVPPC-NH2; peptide 3 Ac-CKGEVAKAAKVKC-NH2; disulfide I:1-I:11, III:1-III:13; thioether II:1-II:13; not fully specified (some residues); also: three peptides held on a 3-way junction DNA scaffold via DBCO staple strands)”?
**A.** reduction of trimer formation ([1]; 1 μM treatment): approximately 40%; reduction in trimer formation ([1]; 10 μM treatment, DSS crosslinking western blot): 70%; reduction in SEAP expression [2]: Negligible reduction; cell viability (HEK-Blue cells; 10 μM, CellTiterGlo): did not decrease cell viability; cellular cytotoxicity (HEK-Blue cells; FIG. 4F, concentrations in μM): not toxic
